Entries after “also recorded” stand apart in the source; their conditions may differ.
Tested on: TLR3
Experiment: TLR3 expression in valvular interstitial cells (immunoblot / RT-qPCR)
Assay type: cell-based, human
Conditions: immunoblot; 20 μg/ml, 24 h or 48 h (FIG. 7A)
Protocol: Valvular interstitial cells from patients undergoing aortic valve replacement or cardiac transplantation were isolated via collagen digestion as described previously^6. Valves were rinsed in EBSS and subsequently subjected to collagenase digestion (Sigma, St. Louis, MO; 2.5 mg/mL in M199) for 30 minutes at 37° C. Thereafter, tissue samples were vortexed and supernatant containing endothelial cells was removed. Again, collagenase was added to the remaining valve tissue (1 mg/mL) for 3 h at 37° C. For mechanical disintegration of the tissue, vortexing and repeated aspiration via a pipette was performed. The supernatant was transferred into a new tube and subjected to centrifugation (300 g for 8 minutes at 4° C.). Subsequently, cells were resuspended in M199 medium containing 10% fetal calve serum, penicillin, streptomycin, L-Glutamine and amphotericin B (2.5 mg/L).
All cells were cultivated under standard conditions (37° C., supplied with 5% CO2). Passaging of the cells was performed at 70-90% confluency, and cells were only used until passage 7 as described previously^6. […]
RT-PCR was performed as described previously^17. […] The result for the relative gene expression was calculated by the 2-DDCt method. Mean Ct values were calculated from double determinations and samples were considered negative if the Ct values exceeded 4017. […]

B1: BGN: proteoglycan biglycan (BGN), a structural protein of the extracellular matrix (ECM) (protein)
chain: DEEASGAETTSGIPDLDSLPPTYSAMCPFGCHCHLRVVQCSDLGLKAVPKEISPDTTLLDLQNNDISELRKDDFKGLQHLYALVLVNNKISKIHEKAFSPLRKLQKLYISKNHLVEIPPNLPSSLVELRIHDNRIRKVPKGVFSGLRNMNCIEMGGNPLENSGFEPGAFDGLKLNYLRISEAKLTGIPKDLPETLNELHLDHNKIQAIELEDLLRYSKLYRLGLGHNQIRMIENGSLSFLPTLRELHLDNNKLSRVPAGLPDLKLLQVVYLHTNNITKVGVNDFCPVGFGVKRAYYNGISLFNNPVPYWEVQPATFRCVTDRLAIQFGNYKK
  TLR3 expression in VICs: induces TLR3 expression in a dose-dependent manner; also recorded: induced TLR3 expression in VICs
